What was measured:
[1] = target: human CD22 (full length, on cells) (human) (UniProt P20273); test: FACS on CHO-K1-human CD22 clone 1G5
[2] = target: human CD22 (full length, on cells) (human) (UniProt P20273); test: FACS on Raji cells, control of the m971 row
[3] = target: human CD22 (full length, on cells) (human) (UniProt P20273); test: FACS on CHO-K1-human CD22 clone 1D9
[4] = target: human CD22 (full length, on cells) (human) (UniProt P20273); test: FACS on CHO-K1-human CD22 clone 2C4
[5] = target: human CD22 (full length, on cells) (human) (UniProt P20273); test: FACS on Raji cells, control of the HA22 row
[6] = target: monkey CD22 on HEK293T-monkey CD22 cells (monkey); test: FACS, HEK293T-monkey CD22 cells
[7] = target: human CD22, full length, on CHO-K1-human CD22 2C4 cells (human) (UniProt P20273); test: FACS, CHO-K1-human CD22 2C4 cells
[8] = target: human CD22, endogenous on Raji cells (human) (UniProt P20273); test: FACS, Raji cells
Chain of human CD22, endogenous on Raji cells (human) (P20273 20-847): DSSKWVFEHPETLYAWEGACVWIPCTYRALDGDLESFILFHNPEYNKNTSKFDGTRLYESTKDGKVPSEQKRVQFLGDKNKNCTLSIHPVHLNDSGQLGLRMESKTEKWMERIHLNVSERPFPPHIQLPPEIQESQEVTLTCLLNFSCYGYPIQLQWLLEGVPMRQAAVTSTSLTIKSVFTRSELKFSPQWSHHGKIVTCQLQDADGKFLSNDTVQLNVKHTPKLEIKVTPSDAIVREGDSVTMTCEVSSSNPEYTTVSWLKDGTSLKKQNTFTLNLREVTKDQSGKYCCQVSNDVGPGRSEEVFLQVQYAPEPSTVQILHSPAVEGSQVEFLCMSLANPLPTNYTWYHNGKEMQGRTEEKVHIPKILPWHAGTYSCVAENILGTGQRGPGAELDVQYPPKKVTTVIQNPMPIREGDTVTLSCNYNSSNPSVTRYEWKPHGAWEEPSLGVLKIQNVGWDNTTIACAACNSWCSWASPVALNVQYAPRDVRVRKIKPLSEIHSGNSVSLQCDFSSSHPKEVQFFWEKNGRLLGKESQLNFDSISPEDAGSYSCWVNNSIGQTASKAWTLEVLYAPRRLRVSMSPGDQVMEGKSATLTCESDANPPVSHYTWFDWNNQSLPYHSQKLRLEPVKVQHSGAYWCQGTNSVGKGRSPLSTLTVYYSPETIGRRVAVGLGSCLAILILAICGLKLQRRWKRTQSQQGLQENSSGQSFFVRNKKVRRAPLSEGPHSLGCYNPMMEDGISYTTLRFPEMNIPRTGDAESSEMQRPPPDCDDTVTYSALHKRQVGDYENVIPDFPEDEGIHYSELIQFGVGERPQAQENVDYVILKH

Chain of human CD22 (full length, on cells) (human) (P20273 20-847 limits assumed): as the sequence (P20273 20-847) above
Chain of human CD22, full length, on CHO-K1-human CD22 2C4 cells (human) (P20273 20-847 limits assumed): as the sequence (P20273 20-847) above
Chain of monkey CD22 on HEK293T-monkey CD22 cells (monkey) (chain, as listed by the source limits assumed): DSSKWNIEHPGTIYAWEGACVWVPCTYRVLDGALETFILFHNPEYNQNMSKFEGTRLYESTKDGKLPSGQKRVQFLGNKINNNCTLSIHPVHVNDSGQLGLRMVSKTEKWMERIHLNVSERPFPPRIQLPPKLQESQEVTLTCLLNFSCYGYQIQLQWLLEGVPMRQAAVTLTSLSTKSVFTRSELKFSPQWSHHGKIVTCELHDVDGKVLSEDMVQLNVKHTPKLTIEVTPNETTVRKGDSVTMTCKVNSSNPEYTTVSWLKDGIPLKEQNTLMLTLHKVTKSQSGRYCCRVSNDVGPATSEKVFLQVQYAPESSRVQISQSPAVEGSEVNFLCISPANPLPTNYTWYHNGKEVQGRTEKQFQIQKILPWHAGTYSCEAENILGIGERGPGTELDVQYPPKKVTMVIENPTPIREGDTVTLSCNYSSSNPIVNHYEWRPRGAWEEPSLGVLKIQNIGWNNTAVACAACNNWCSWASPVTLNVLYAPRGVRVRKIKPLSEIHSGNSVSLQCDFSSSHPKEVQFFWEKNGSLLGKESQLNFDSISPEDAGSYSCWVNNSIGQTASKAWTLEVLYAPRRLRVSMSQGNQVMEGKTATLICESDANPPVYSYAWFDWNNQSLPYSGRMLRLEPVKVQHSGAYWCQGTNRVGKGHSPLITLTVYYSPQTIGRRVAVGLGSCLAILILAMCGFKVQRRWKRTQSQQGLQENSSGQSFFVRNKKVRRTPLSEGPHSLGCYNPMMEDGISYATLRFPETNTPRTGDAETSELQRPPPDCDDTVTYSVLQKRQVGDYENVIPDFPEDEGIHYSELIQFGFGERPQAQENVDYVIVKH

IgG subtype control (antibody)
Cell mean fluorescence intensity [1]: 66 MFI | Cell mean fluorescence density [2]: 44 MFI | Cell mean fluorescence intensity [3]: 66 MFI | Cell mean fluorescence intensity [4]: 66 MFI | Cell mean fluorescence density [5]: 44 MFI

anti-hel-hIgG1 (antibody)
Maximum mean fluorescence intensity [6]: 129 MFI

anti-hel-hIgG1 (negative control antibody against chicken egg lysozyme)
Maximum mean fluorescence intensity [7]: 150 MFI | Maximum mean fluorescence intensity [8]: 564 MFI

— patent US20240084003A1
